Experimental data taken from patent US20200392459.

Target: TALEN T3 pair (T3L/T3R) (artificial) (UniProt Q56830+Q56830)
Experiment: cell_activity
Details: CD34+ cells

Work on CNOT10 off-target locus yielded an activity (mock 0.03%, p<0.0001, off-target) of 0.25 % indels.

In the case of FAM5C off-target locus, the activity (mock 0.02%, p=0.0015, not significant in K562 or CD4+) was 0.05 % indels.
